The text below walks through data of paper PMC4574524.

The target in this experiment is PFD1235w DBLβ3_D4, wild type (P. falciparum 3D7). Briefly: SPR. A general note: Surface plasmon resonance follows binding to a sensor surface in real time, without labels.

What is called Kd is the concentration at which binding is half-saturated. As a reminder, the koff is the first-order rate constant of dissociation. Read a low koff as slow dissociation.

ICAM-1_D1-D2 (domain or fragment): the Kd came out at 7.9 nM and the dissociation rate constant (koff) amounted to 0.00167 s⁻¹.
